Reference: US9549967B2, “Regulation of sodium channels by PLUNC proteins” (The University of North Carolina at Chapel Hill, priority 2009, dated 2017)

T1: ENaC (Homo sapiens, UniProt P37088+P51168+P51170)
T1 construct: endogenous in cells; host or cells: primary human bronchial epithelial cultures
T1 sequence (P37088 1-669): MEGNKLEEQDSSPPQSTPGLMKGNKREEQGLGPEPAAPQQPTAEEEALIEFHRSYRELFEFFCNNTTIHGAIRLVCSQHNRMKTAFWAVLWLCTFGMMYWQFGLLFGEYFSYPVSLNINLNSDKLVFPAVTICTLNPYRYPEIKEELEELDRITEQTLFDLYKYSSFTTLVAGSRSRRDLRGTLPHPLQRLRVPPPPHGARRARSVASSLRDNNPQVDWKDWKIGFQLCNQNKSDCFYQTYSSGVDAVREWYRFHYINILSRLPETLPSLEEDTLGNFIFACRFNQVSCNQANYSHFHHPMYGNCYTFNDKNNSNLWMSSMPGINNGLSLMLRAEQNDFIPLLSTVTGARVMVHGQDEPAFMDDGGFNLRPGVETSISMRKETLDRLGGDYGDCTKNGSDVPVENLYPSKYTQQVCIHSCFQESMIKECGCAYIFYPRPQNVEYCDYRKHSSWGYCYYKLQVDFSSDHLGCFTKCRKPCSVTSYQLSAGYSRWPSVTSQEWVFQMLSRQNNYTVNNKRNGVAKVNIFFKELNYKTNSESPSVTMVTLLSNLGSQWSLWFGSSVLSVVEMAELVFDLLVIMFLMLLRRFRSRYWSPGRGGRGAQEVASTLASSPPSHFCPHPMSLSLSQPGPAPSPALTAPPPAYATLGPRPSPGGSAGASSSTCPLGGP
T1 sequence (P51168 1-640): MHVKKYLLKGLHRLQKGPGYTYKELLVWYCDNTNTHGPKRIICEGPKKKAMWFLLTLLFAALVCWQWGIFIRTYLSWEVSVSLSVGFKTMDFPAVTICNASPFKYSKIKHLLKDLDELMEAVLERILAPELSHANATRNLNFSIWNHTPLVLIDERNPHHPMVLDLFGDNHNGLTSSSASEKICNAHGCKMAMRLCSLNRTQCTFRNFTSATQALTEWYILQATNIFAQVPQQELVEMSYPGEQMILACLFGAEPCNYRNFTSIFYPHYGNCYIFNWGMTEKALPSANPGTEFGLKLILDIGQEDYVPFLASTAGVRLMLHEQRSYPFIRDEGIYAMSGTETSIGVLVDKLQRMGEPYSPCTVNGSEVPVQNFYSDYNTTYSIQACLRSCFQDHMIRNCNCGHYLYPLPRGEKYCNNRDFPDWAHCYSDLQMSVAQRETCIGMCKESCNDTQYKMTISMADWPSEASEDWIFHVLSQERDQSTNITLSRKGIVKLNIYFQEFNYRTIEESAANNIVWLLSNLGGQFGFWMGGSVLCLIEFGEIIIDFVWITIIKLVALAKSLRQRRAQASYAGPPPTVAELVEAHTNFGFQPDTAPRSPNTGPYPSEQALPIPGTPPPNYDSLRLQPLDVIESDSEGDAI
T1 sequence (P51170 1-649): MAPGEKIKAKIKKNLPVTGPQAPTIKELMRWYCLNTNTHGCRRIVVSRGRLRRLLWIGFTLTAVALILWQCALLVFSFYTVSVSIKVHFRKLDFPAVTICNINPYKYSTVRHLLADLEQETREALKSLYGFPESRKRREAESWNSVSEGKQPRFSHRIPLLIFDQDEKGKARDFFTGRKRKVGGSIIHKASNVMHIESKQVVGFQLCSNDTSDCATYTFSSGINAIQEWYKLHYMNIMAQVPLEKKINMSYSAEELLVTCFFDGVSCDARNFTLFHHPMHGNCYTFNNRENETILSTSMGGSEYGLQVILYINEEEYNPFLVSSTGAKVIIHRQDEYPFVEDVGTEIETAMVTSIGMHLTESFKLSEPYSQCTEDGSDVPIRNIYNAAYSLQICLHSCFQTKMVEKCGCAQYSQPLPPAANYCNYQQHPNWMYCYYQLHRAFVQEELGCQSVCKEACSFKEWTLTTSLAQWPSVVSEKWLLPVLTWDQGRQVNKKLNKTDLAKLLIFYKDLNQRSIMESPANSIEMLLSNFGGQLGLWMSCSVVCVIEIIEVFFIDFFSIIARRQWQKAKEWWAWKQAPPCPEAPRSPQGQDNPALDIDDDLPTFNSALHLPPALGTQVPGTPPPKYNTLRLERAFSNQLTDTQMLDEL


Experiments:
[1] = molecular target: T1, ENaC; assay: Transepithelial voltage under thin film conditions in human bronchial epithelial cultures (microelectrode); type: cell-based
Source text: Tissue procurement and cell culture: Cells were harvested by enzymatic digestion from human bronchial tissue as previously described under a protocol approved by the UNC School of Medicine IRB (Tarran et al., J. Gen. Physiol. 127:591 (2006)). Human excess donor lungs and excised recipient lungs were obtained at the time of lung transplantation from portions of main stem or […] bronchi and cells were harvested by enzymatic digestion. All preparations were maintained at an air-liquid interface in a modified bronchial epithelial medium and used 2-5 weeks after seeding on 12 mm T-Clear inserts (Corning Costar) coated with human placental type VI collagen (Sigma). Phosphate buffered saline (PBS) was used for washing human bronchial epithelial culture mucosal surfaces.
Microelectrode studies. A single-barreled potential difference-sensing electrode was placed in the airway surface liquid by micromanipulator and used in conjunction with a macroelectrode in the serosal solution to measure transepithelial voltage using a voltmeter (World Precision Instruments). […] Transepithelial resistance was routinely measured using the EVOM system (WPI) as previously described (Tarran et al., J. Gen. Physiol. 127:591 (2006)).

[2] = system: serine proteases; assay: Endogenous protease activity (BGAR-MCA cleavage) on mucosal surfaces of human bronchial epithelial cultures; type: cell-based
Experimental: For cell-free assays, reactions were carried out in 50 μl Ringer in a 96 well plate format with 100 μM BGAR-MCA. To measure endogenous protease activity in human bronchial epithelial cultures, 30 μl Ringer with 100 μM BGAR-MCA were placed directly onto the mucosal surfaces of human bronchial epithelial cultures grown on 12 mm T-clear inserts and the cultures were assayed in 12 well plates.

Molecule	transepithelial voltage after mucosal trypsin ([1]; SPLUNC1-exposed group, trypsin for 30 min after 1 h rSPLUNC1 exposure)	transepithelial voltage after mucosal trypsin ([1]; control cultures, trypsin for 30 min)	spontaneous BGAR-MCA cleavage on mucosal surfaces [2]	regulation of the transepithelial voltage ([1]; SPLUNC1 knockdown cultures, 50 ng/ml rSPLUNC1 added to airway surface liquid)	transepithelial voltage ([1]; cultures not pre-washed, airway surface liquid accumulated for 24 h)	onset of inhibition ([1]; human bronchial epithelial cultures, FIG. 2C, 2D) [min]	rate of inhibition of the transepithelial voltage ([1]; rSPLUNC1 vs aprotinin addition, effects not additive)	transepithelial voltage, addition to amiloride-treated cultures ([1]; same amiloride-treated cultures, n=12)	transepithelial voltage ([1]; washed cultures, 20 μl Ringer containing 50 ng/ml rSPLUNC1)
trypsin [reference compound]	significantly raised the transepithelial voltage	without effect							
SPLUNC1: human SPLUNC1, 256 amino acid secreted PLUNC protein (SEQ ID NO:1); rSPLUNC1 = V5/6His-tagged protein purified from HEK293 media (protein, listed as Homo sapiens, V5/6His tag, rSPLUNC1 = V5/6His-tagged protein purified from HEK293 media) MFQTGGLIVFYGLLAQTMAQFGGLPVPLDQTLPLNVNPALPLSPTGLAGSLTNALSNGLLSGGLLGILENLPLLDILKPGGGTSGGLLGGLLGKVTSVIPGLNNIIDIKVTDPQLLELGLVQSPDGHRLYVTIPLGIKLQVNTPLVGASLLRLAVKLDITAEILAVRDKQERIHLVLGDCTHSPGSLQISLLDGLGPLPIQGLLDSLTGILNKVLPELVQGNVCPLVNEVLRGLDITLVHDIVNMLIHGLQFVIKV			no significant affect	restored	without further effect	30 to 60	identical rates	without further effect	significantly reduced the transepithelial voltage
